Source: US20120258041A1 (published 2012)
One block for each molecule: values may come before it.

Key:
human iC3b (human) = human iC3b (human) (UniProt P01024); test: sandwich ELISA: chicken anti-C3 capture antibody, captured antigen, A209 as detecting antibody, goat anti-mouse-HRP, ABTS
murine iC3b = target: T1, murine iC3b (mouse, UniProt P01027 25-1663, limits assumed); test: sandwich ELISA: rat mAb 2/11 (anti-mouse C3b/iC3b/C3c) capture, mouse serum 1:25 as antigen source, biotinylated antibody, streptavidin-HRP, ABTS, read at 405 nm
T1 construct: Native material from a mixture of two mouse sera; the capture antibody also takes C3b and C3c; also called mouse iC3b
T1 sequence (P01027 25-1663 limits assumed): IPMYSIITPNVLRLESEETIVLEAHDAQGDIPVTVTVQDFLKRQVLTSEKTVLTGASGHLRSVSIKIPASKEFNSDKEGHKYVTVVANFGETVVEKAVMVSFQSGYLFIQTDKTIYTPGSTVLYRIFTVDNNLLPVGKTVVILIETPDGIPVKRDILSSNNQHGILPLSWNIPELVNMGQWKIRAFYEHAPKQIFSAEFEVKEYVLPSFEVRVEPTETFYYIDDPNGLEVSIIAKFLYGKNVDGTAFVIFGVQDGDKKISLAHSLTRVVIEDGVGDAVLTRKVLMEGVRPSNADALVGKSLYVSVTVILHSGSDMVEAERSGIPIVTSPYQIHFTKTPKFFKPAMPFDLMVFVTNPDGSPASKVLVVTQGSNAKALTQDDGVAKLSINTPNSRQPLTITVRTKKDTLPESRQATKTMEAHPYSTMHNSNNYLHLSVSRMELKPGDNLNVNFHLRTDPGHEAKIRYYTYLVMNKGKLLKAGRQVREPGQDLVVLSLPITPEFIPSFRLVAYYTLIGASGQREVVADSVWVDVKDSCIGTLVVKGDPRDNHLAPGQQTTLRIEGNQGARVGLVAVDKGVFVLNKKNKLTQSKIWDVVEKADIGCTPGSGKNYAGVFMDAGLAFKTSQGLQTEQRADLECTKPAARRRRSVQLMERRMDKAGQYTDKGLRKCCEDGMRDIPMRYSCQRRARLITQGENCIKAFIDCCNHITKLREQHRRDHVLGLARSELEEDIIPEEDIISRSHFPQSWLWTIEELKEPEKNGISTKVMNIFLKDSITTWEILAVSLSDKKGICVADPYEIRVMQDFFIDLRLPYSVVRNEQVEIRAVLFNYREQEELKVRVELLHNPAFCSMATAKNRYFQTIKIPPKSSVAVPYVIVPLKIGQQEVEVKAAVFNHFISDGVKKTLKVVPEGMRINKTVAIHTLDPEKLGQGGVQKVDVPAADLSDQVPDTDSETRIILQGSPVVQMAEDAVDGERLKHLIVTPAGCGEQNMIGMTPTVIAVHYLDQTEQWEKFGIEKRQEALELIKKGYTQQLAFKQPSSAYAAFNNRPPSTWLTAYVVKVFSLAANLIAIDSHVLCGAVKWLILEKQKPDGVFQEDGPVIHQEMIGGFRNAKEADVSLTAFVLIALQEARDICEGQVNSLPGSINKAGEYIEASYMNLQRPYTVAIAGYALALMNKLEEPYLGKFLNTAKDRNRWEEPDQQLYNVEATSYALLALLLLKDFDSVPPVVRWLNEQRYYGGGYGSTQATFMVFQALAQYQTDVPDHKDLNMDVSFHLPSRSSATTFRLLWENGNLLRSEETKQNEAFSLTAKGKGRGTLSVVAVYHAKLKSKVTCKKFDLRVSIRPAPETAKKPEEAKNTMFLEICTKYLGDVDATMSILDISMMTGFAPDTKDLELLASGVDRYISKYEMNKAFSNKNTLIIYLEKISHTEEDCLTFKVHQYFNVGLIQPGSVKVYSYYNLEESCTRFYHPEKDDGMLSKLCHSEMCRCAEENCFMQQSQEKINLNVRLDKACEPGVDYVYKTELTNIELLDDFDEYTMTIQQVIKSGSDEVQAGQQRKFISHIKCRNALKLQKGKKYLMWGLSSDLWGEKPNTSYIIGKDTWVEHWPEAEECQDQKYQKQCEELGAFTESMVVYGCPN

Sequence of human iC3b (human) (P01024 23-667 limits assumed, chain 1 of 3): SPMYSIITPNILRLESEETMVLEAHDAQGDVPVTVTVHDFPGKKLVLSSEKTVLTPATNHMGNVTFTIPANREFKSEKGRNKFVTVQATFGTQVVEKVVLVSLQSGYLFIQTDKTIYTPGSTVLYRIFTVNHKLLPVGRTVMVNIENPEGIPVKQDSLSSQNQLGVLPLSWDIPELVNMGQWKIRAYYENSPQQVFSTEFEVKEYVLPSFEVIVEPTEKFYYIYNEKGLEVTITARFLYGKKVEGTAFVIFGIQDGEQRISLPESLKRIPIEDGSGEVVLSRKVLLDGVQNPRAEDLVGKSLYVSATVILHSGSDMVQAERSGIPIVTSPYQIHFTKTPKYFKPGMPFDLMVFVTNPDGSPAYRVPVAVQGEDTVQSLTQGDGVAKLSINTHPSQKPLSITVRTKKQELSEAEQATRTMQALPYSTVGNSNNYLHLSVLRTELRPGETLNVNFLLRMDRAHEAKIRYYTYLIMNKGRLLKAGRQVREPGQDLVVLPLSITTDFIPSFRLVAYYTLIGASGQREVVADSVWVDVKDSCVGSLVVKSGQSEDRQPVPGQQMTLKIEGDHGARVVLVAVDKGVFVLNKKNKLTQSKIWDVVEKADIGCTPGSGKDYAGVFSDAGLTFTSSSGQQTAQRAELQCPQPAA
Sequence of human iC3b (human) (P01024 749-1303 limits assumed, chain 2 of 3): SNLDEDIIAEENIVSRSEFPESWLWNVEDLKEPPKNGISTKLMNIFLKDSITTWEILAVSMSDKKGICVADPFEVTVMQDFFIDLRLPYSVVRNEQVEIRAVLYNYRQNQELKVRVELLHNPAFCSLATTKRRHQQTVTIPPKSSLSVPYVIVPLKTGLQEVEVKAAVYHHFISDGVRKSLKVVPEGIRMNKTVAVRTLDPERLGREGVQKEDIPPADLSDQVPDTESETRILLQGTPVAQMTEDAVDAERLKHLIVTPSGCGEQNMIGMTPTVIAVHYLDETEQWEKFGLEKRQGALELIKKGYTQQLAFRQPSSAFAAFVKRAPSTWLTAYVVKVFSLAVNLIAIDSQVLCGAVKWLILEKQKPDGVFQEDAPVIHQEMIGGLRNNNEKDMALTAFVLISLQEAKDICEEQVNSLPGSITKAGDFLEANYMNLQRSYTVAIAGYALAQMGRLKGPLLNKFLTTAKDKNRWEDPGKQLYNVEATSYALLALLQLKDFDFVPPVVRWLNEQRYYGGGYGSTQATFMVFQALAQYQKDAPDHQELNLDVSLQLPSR
Sequence of human iC3b (human) (P01024 1321-1663 limits assumed, chain 3 of 3): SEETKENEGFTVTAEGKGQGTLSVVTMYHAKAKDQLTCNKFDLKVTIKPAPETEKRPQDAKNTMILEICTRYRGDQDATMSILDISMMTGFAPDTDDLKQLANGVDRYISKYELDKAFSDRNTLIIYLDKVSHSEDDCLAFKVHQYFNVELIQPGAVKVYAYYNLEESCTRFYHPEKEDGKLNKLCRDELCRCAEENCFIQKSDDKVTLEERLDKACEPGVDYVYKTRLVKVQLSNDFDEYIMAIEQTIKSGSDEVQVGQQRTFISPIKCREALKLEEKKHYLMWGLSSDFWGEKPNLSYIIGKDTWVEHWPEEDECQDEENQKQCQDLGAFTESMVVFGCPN

- EC50 (read off the curve) (human iC3b (human)): 0.03 µg/mL
Molecule: A209 antibody (Quidel), mouse anti-human iC3b monoclonal antibody

- EC50 (read off the curve) (murine iC3b): ~20 nM
B1: mouse monoclonal antibody 5D2 (antibody, V domains shown)
VH: EVQLQQSGPELVKPGASVKISCKASGYTFTDNYYMNWVKQSHGKSLEWIGHIYPNNGVTSYNQKFRGKATLTVDKSSNSAYMELRSLTSEDSALYYCARNKLLSLYWYFDVWGTGTSVTVSS
VL: DIQMTQSSSSFSVFLGDRITITCRASVDIYNRLAWFQQKPGNAPRLLISGATSLATGVPSRFSGSGSGKDYTLSITSLQTEDVTIYYCQQYWSTPWTFGGGTKLEIKR
